Experimental data reported in patent US20080176756A1.

Biological target: Cyclosporine 29-56-14 combinatorial mutant clone R2-9 (scFv on yeast)
Experiment: competition, flow cytometry on yeast; M17 0 to 5 uM against 0.5 nM bt-CsA; physiological or selection diluent

cyclosporine A metabolite M17 (peptide) was tested, and the fold increase of IC50 compared to WT CsA 29-56-14 was 30 to 100 fold.
